Experimental findings from patent US20230331835A1 are described below.

In this assay the target is antigens on human iPSC-derived brain microvascular endothelial cells (BMECs) (human). The assay is described as follows: flow cytometry of BMECs with phage, anti-M13 detection.

The substance “phage displaying anti-botulinum neurotoxin scFv” had a geometric mean (fluorescence) of 3.16.
